The chains are these.
B1: DISC1 322-852 (predicted helical region of DISC1) (domain or fragment, UniProt Q811T9-1 322-852, looked up)
chain: ADAHGWHTLLREWEPMLQDYLLSNRRQLEVTSLILKLQKCQEKVVEDGDYDTAETLRQRLEELEQEKGRLSWALPSQQPALRSFLGYLAAQIQVALHGATQRAGSDDPEAPLEGQLRTTAQDSLPASITRRDWLIREKQRLQKEIEALQARMSALEAKEKRLSQELEEQEVLLRWPGCDLMALVAQMSPGQLQEVSKALGETLTSANQAPFQVEPPETLRSLRERTKSLNLAVRELTAQVCSGEKLCSSLRRRLSDLDTRLPALLEAKMLALSGSCFSTAKELTEEIWALSSEREGLEMFLGRLLALSSRNSRRLGIVKEDHLRCRQDLALQDAAHKTRMKANTVKCMEVLEGQLSSCRCPLLGRVWKADLETCQLLMQSLQLQEAGSSPHAEDEEQVHSTGEAAQTAALAVPRTPHPEEEKSPLQVLQEWDTHSALSPHCAAGPWKEDSHIVSAEVGEKCEAIGVKLLHLEDQLLGAMYSHDEALFQSLQGELQTVKETLQAMILQLQPTKEAGEASASYPTAGAQETEA
B3: ATF4 leucine zipper domain (residues 314-349) (domain or fragment, UniProt Q06507 314-349, looked up)
chain: KNEALKEKADSLAKEIQYLKDLIEEVRKARGKKRVP

The target of data set [1] is B3. As to the kind of experiment: ITC. For orientation: Isothermal titration calorimetry measures the heat released or taken up as one component is titrated into another.
Data set [2] has as its target C/EBPα (UniProt P53566 1-359). Put plainly: ITC.
The target of data set [3] is C/EBPζ (CHOP) (UniProt P35639 1-168). Put plainly: ITC.
The target in data set [4] is B1. Put plainly: ITC.
Data set [5] deals with the molecule itself. As to the kind of experiment: SEC-MALS.
Data set [6] addresses T1, ATF4 278-349 (basic region + leucine zipper) (UniProt Q06507 278-349).
T1 sequence: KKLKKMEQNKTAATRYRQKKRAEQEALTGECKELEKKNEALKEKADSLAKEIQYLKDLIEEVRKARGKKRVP
As to the kind of experiment: ITC.

C/EBPα, sequence (P53566 whole entry): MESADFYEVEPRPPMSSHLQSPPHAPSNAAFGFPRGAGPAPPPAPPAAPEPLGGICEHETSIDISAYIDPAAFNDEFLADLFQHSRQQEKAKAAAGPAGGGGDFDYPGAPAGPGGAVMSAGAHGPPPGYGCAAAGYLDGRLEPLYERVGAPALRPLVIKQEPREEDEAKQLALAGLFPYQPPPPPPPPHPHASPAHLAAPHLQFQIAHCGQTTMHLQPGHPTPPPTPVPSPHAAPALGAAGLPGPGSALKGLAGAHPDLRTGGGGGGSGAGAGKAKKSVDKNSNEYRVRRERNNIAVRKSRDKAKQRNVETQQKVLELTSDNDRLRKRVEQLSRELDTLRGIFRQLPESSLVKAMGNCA
C/EBPζ (CHOP), sequence (P35639 whole entry): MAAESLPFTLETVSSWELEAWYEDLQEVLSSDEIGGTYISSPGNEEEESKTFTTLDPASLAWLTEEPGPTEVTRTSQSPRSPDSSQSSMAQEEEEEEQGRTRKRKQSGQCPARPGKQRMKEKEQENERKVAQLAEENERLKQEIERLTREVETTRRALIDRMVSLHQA

By stoichiometry N is commonly meant a count of units in the complex or per binding partner. With B1, the “stoichiometry N” value in data set [1] was determined as 1.

B2: DISC1-CC (coiled coil, residues 765-835) (domain or fragment, UniProt Q811T9-1 765-835, looked up)
chain: GPWKEDSHIVSAEVGEKCEAIGVKLLHLEDQLLGAMYSHDEALFQSLQGELQTVKETLQAMILQLQPTKEA
For orientation: Kd means the constant that tells how readily two partners part at equilibrium. For the molecule B2, the dissociation constant Kd in data set [2] is roughly 11000 nM. Further, in data set [3], the “fold weaker than the DISC1/ATF4 interaction” value is roughly 2000 fold.
Take B3: the Kd in data set [4] was roughly 14 nM.

B4: trx tagged-ATF4-LZ (domain or fragment, UniProt Q06507 314-349, looked up)
chain: KNEALKEKADSLAKEIQYLKDLIEEVRKARGKKRVP
For the molecule B4, the “stoichiometry N” value in data set [5] was 2.

B5: CRE dsDNA (dsDNA)
DNA 1: GCAGATGACGTCATCTGC
DNA 2: GCAGATGACGTCATCTGC
For B5, in data set [6], the Kd is roughly 12 nM.
